This is an account of results in patent US20240317862A1 (AMPSOURCE BIOPHARMA SHANGHAI, published 2024).

Experiment [1] addresses T1, human B7-H3 on tumor cells (Hs578T, MDA-MB-436, MDA-MB-468, MDA-MB-231, MDA-MB-453, HT-29) (human, UniProt Q5ZPR3 29-534).
T1 construct: whole, on cells; also called target cells
T1 sequence (looked up): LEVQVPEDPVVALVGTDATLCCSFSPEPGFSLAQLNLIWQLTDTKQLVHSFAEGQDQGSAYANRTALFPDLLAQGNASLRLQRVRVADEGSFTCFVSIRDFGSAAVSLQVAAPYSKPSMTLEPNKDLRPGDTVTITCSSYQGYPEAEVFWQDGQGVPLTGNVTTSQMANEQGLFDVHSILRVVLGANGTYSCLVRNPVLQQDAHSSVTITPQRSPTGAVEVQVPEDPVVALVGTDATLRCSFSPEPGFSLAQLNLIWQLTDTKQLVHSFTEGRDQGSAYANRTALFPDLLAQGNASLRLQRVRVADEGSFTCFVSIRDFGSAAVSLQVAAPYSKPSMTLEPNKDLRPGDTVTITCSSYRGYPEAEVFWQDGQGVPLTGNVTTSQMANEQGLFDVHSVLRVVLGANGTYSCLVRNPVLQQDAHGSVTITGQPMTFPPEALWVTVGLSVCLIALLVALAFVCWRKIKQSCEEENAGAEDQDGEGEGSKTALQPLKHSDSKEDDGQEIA
Kind of experiment: flow cytometry, MFI titration on MDA-MB-231 cells. As for the experimental part:
(§1) The collected cells were resuspended with 1% PBSB to adjust the cell density to 2×10⁶ cells/ml, placed in 96-well plates 100 μL (2×10⁵ cells) per well, and blocked for 0.5 hours at 4° C. The blocked cells were centrifuged to discard the supernatant, and a series of diluted antibodies mAb152 and mAb272 were added to the cells. The cells were incubated for 1 hour at 4° C., then centrifuged to discard the supernatant, and washed three times with a PBS solution with 1% BSA (PBSB). Diluted AF64-labeled goat anti-human IgG antibodies (Jackson, Cat. No. 109-605-088) were added to the cells, and the cells were incubated for 1 hour at 4° C. in the dark. The obtained cells were centrifuged to discard the supernatant and then washed twice with 1% PBSB, and cells in each well were resuspended with 100 μL of 1% paraformaldehyde (PF). The signal intensity was detected by flow cytometry. The analysis was performed with the mean fluorescence intensity (MFI) as the Y-axis and the antibody concentration as the X-axis through the software GraphPad Prism 7 to calculate the Kd values for the binding of the murine monoclonal antibodies to the tumor cells.
Background: Flow cytometry measures light scatter and fluorescence of single cells or particles in a stream.

The target in experiment [2] is T1, human B7-H3 on tumor cells (Hs578T, …). Kind of experiment: flow cytometry, MFI titration on MDA-MB-468 cells. As for the experimental part:
as §1

Experiment [3] shares this target. Kind of experiment: flow cytometry, MFI titration on Hs578T cells. The protocol: as §1
For experiment [4] the target is unchanged. Kind of experiment: flow cytometry, MFI titration on MDA-MB-453 cells. The protocol:
as §1

Experiment [5] shares this target. Kind of experiment: flow cytometry, MFI titration on MDA-MB-436 cells. The protocol:
as §1

For experiment [6], the target named is T2, Cynomolgus monkey B7-H3 protein (Sino Biological Inc. Beijing) (Cynomolgus monkey).
T2 construct: Bought protein coated on ELISA plates; also called monkey B7-H3 antigen
Kind of experiment: ELISA, plate coated with 0.1 µg/mL Cynomolgus monkey B7-H3, HRP-labeled antibody, OD 450/620 nm. The protocol: (§2) The cross-reactivity of the anti-B7-H3 murine monoclonal antibodies with mouse and Cynomolgus monkey B7-H3 antigens was detected in this example.
(§3) Specific experimental procedures are as follows: The plates were coated with 100 μL of 0.1 μg/mL Cynomolgus monkey B7-H3 and murine B7-H3 proteins (Sino Biological Inc. Beijing) at room temperature overnight. The coating solution was discarded, and the wells were blocked for 0.5 hours with skimmed milk dissolved in phosphate buffered saline (PBS) and washed with PBS containing 0.05% Tween-20. 50 μL of purified HRP-labeled B7-H3 monoclonal antibodies was added to each well and incubated at room temperature for 1 hour. The cells were washed five times with PBS containing 0.05% Tween-20, 100 μL of TMB was added to each well, and color development was performed at room temperature for 5 min. 50 μL of 2N H₂SO₄ was added to each well to stop the color development reaction. The values at 450 nm were measured by a microplate reader. The results were imported into Graph Prism to calculate EC₅₀ values.
On the technique in general: An ELISA detects its analyte on a solid surface through an enzyme-linked reagent.

Another experiment deals with T3, His-labeled human B7-H3 (human, UniProt Q5ZPR3 29-461).
T3 construct: Coupled to a Ni-NTA sensor in BLI; also called antigen B7-H3; not shown: His label
T3 sequence (looked up): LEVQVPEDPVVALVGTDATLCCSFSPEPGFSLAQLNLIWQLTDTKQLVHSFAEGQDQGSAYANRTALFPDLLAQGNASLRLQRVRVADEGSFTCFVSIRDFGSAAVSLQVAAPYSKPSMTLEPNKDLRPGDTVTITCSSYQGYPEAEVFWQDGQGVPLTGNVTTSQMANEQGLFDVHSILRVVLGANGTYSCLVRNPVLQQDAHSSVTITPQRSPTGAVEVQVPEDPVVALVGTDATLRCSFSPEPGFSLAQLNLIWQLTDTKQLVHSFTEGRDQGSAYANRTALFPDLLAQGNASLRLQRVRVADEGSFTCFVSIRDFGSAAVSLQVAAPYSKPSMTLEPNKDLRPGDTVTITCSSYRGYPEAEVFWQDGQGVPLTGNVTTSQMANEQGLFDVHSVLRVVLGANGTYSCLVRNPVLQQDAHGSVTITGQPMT
Kind of experiment: BLI (ForteBio Octet), His-labeled human B7-H3 on Ni-NTA sensor, antibody 3.125-100 nM. As for the experimental part:
The binding affinity constants of the purified murine monoclonal antibodies to the antigen B7-H3 were determined by bio-layer interferometry (BLI) with a ForteBio Octet RED&QK system from PALL Corporation.
For orientation: Biolayer interferometry detects binding as a change in optical thickness at a sensor tip.

Experiment [7] addresses T4, human B7-H3 (purchased from Acro Biosystems) (human, UniProt Q5ZPR3 29-461, limits assumed).
T4 construct: Bought protein coated on ELISA plates; also called human B7-H3 antigen; human B7-H3 molecules
T4 sequence (looked up): T3 sequence (looked up)
Kind of experiment: ELISA, plate coated with 0.1 µg/mL human B7-H3, HRP goat anti-mouse IgG detection. As for the experimental part:
Plates were coated with 100 μL of 0.1 μg/mL human B7-H3 (purchased from Acro Biosystems) at room temperature overnight. The coating solution was discarded, and the wells were blocked for 0.5 hours with skimmed milk dissolved in phosphate buffered saline (PBS) and washed with PBS containing 0.05% Tween-20 (PBST). The murine antibodies mAb152 and mAb272 against human B7-H3 to be tested were then diluted to appropriate concentrations, added to plates, 50 μL per well, and incubated at room temperature for 1 hour. The wells were washed with 0.05% PBST, and then 50 μL of HRP-labeled goat anti-mouse IgG polyclonal antibodies (purchased from Jackson Laboratory) was added to each well as the detection antibody and incubated at 37° C. for 1 hour. The cells were washed three times with 0.05% PBST, TMB was added to the plates, 100 μL/well, and color development was performed at room temperature for 5 min. 0.2 M H₂SO₄ was added, 50 μL/well, to stop the color development reaction. The light absorbance values at 450 nm/620 nm were measured by a microplate reader. A graph was drawn by software GraphPad Prism 7 with the absorbance as the Y-axis and the antibody concentration as the X-axis.

The target in experiment [8] is T1, human B7-H3 on tumor cells (Hs578T, …). Kind of experiment: flow cytometry, MFI titration on HT-29 cells. The protocol: as §1
Experiment [9] has as its target T5, murine B7-H3 protein (Sino Biological Inc. Beijing) (mouse, UniProt Q8VE98 29-244, limits assumed).
T5 construct: Bought protein coated on ELISA plates; also called mouse B7-H3 antigen; murine B7-H3 antigen
T5 sequence (looked up): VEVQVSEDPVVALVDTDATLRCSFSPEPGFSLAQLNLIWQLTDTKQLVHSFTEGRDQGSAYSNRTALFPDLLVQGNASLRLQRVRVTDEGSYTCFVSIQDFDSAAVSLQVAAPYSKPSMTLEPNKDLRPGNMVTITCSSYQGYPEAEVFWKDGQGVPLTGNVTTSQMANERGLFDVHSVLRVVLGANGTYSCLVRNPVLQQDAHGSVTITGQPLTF
Kind of experiment: ELISA, plate coated with 0.1 µg/mL murine B7-H3, HRP-labeled antibody, OD 450/620 nm. The protocol: as §2, §3

Changes are numbered by the printed parent chain.

A word on the Kd: it is the concentration at which binding is half-saturated. By EC50 (read off the curve) is commonly meant the midpoint of the concentration-response curve. In general, koff refers to a measure of how fast the partners let go of each other. By kon is commonly meant a measure of how fast the partners come together. One may read the EC50 as the concentration that produces a half-maximal response.

B1: murine monoclonal antibody mAb152 (antibody, V domains shown)
VH: QVQLQQPGAELVRPGASVKLSCKASGYTFTAYWMNWVKQRPDQGLEWIGRIDPYDSETRYNQNFRDKARLTVDKSSSTAYMQLSSLTSEDSAVFYCARGVRIFDYWGQGTTLTVSS
VL: DIQMTQSPASLAASVGETVTITCRTSENIDYTLAWYQQKPGKSPQLLIYNANTLEDGVPSRFSGSGSGTHFSLKINSMQPEDTATYFCKQAYDVPRTFGGGTKLEIK
Regarding B1, the Kd in experiment [1] was 0.227 nM; in experiment [2], 2.6 nM; in [3] it was 0.835 nM; in experiment [4], 0.273 nM; in experiment [5], 5.05 nM; with His-labeled human B7-H3, 0.015 nM. This molecule yielded a Kd in experiment [8] of 1.25 nM. Moreover, the half-maximal effective concentration (EC50 (read off the curve)) in experiment [6] was ~6 ng/mL. The same molecule returned a koff with His-labeled human B7-H3 of 3.09e-06 s⁻¹. Besides, the on-rate constant (kon) with His-labeled human B7-H3 came out at 207000 M⁻¹ s⁻¹. In addition, it took 6.69 ng/mL to reach a half-maximal effect in [7] (EC50). For the same molecule, the binding result in experiment [9] was “no binding (tested: 10 µg/mL)”.

B2: murine monoclonal antibody mAb272 (antibody, V domains shown)
VH: B1 VH
VL: B1 VL with H70L, S77N
B2: the equilibrium dissociation constant (Kd) in [1] is 0.204 nM; in experiment [2], 3.24 nM; in experiment [3] it was 1.2 nM; in experiment [4], 0.239 nM; in experiment [5] it was 5.11 nM; in the experiment with His-labeled human B7-H3, < 0.001 nM. This molecule had an equilibrium dissociation constant (Kd) in experiment [8] of 2.35 nM. Further, the “EC50 (read off the curve)” value in experiment [6] was ~5 ng/mL. In addition, the dissociation rate constant (koff) with His-labeled human B7-H3 is < 1e-07 s⁻¹. For the same molecule, in the experiment with His-labeled human B7-H3, the on-rate constant (kon) came to 220000 M⁻¹ s⁻¹. This molecule also gave an EC50 in experiment [7] of 6.16 ng/mL. The binding result in experiment [9] is listed as “no binding (tested: 10 µg/mL)”.
